From patent publication US12590951B2, “Culture medium and culture method for primary cells of intestinal cancer” (PRECEDO PHARMACEUTICALS CO., LTD, priority 2021, dated 2026)

Tested on: primary cells of intestinal cancer
Assay: Effect of single additives in Basic Medium on proliferation of primary cells of intestinal cancer (cell count)
Assay type: cell-based, human
Parameters: key: +: compared with the Basic Medium, the medium added with the additive(s) has the effect of promoting the proliferation of primary cells of intestinal cancer isolated from intestinal cancer tissue in at least two cases; −: the medium added with the additive(s) has the effect of inhibiting the proliferation of primary cells of intestinal cancer isolated from intestinal cancer tissue in at least one case; ∘: the medium added with the additive(s) has no significant effect on the proliferation of primary cells of intestinal cancer isolated from intestinal cancer tissue in at least two cases
Settings: additive at the final concentration in Basic Medium; samples OE0042 and OE(E)003; 7-10 days; compared with Basic Medium
Experimental: First, Basic Medium was prepared. The formulation of Basic Medium is: DMEM/F12 medium (purchased from Corning)+5 μM Y27632 (purchased from MCE)+5% (v/v) fetal bovine serum (purchased from Excell Bio)+100 μg/mL Primocin (purchased from InvivoGen, 0.2% (v/v), the concentration of commercial product is 50 mg/ml).
Different types of additives (see Table 1) were added to the Basic Medium to prepare the culture mediums for primary cells of intestinal cancer containing different components.
The culture mediums of different components as shown in Table 1 were added into a 48-well plate at a volume of 1 mL/well. Primary cells of intestinal cancer isolated from two cases of intestinal cancer tissues (numbered OE0042 and OE(E)003) according to the above step (2) were inoculated into the 48-well culture plate at a cell density of 3×10^4 cells/well, and were cultured at 37° C., under 5% CO2 concentration. After culturing for 7-10 days, when the cells grew to 85%, the culture medium was discarded, and 100 μL/well of 0.05% trypsin (purchased from Gibco) was used to rinse the cells once. After the trypsin was removed, 200 μL of 0.05% trypsin was added to each well. The plate was then placed in a 37° C., 5% CO2 incubator for 10 minutes, and the cells were observed under a microscope (CNOPTEC, BDS400), showing that the cells had completely digested. 300 μL of DMEM/F12 medium containing 10% serum (Excell Bio, FND500) was added to stop the digestion. 20 μL of the resultant was added into a cell counting plate (Countstar, specification: 50 pieces/box), and the total number of cells was counted with a cell counter (Countstar, IC1000). Specifically, Basic Medium without any additives was used as an experimental control, and the experimental results are shown in Table 1.

B1: R-spondin1: medium additive, R-spondin family protein from R&D (protein, UniProt Q2MKA7 21-263, looked up)
R-spondin-1: SRGIKGKRQRRISAEGSQACAKGCELCSEVNGCLKCSPKLFILLERNDIRQVGVCLPSCPPGYFDARNPDMNKCIKCKIEHCEACFSHNFCTKCKEGLYLHKGRCYPACPEGSSAANGTMECSSPAQCEMSEWSPWGPCSKKQQLCGFRRGSEERTRRVLHAPVGDHAACSDTKETRRCTVRRVPCPEGQKRRKGGQGRRENANRNLARKESKEAGAGSRRRKGQQQQQQQGTVGPLTSAGPA
In the case of B1, the “Level of promoting cell proliferation” value is reported as “∘”.

B2: IL-22: medium additive from Peprotech (protein, UniProt Q9GZX6 34-179, looked up)
Interleukin-22: APISSHCRLDKSNFQQPYITNRTFMLAKEASLADNNTDVRLIGEKLFHGVSMSERCYLMKQVLNFTLEEVLFPQSDRFQPYMQEVVPFLARLSNRLSTCHIEGDDLHIQRNVQKLKDTVKKLGESGEIKAIGELDLLFMSLRNACI
With B2 the “Level of promoting cell proliferation” value was “−”.

B3: Noggin: medium additive from R&D (protein, UniProt Q13253 28-232, looked up)
Noggin: QHYLHIRPAPSDNLPLVDLIEHPDPIFDPKEKDLNETLLRSLLGGHYDPGFMATSPPEDRPGGGGGAAGGAEDLAELDQLLRQRPSGAMPSEIKGLEFSEGLAQGKKQRLSKKLRRKLQMWLWSQTFCPVLYAWNDLGSRFWPRYVKVGSCFSKRSCSVPEGMVCKPSKSVHLTVLRWRCQRRGGQRCGWIPIQYPIISECKCSC
B3 was tested, and the “Level of promoting cell proliferation” value was “∘”.

B4: KGF: medium additive from R&D (protein, UniProt P21781 32-194, looked up)
Fibroblast growth factor 7: CNDMTPEQMATNVNCSSPERHTRSYDYMEGGDIRVRRLFCRTQWYLRIDKRGKVKGTQEMKNNYNIMEIRTVAVGIVAIKGVESEFYLAMNKEGKLYAKKECNEDCNFKELILENHYNTYASAKWTHNGGEMFVALNQKGIPVRGKKTKKEQKTAHFLPMAIT
With B4 the “Level of promoting cell proliferation” value was “∘”.

B5: FGF10: medium additive from sino biological (protein, UniProt O15520 38-208, looked up)
Fibroblast growth factor 10: QALGQDMVSPEATNSSSSSFSSPSSAGRHVRSYNHLQGDVRWRKLFSFTKYFLKIEKNGKVSGTKKENCPYSILEITSVEIGVVAVKAINSNYYLAMNKKGKLYGSKEFNNDCKLKERIEENGYNTYASFNWQHNGRQMYVALNGKGAPRRGQKTRRKNTSAHFLPMVVHS
B5 was tested, and the “Level of promoting cell proliferation” value was “−”.
